From patent US20250026827A1 (Alector, published 2025)
Substitutions are numbered along the chain they refer to.

Experiments:
[1] = molecular target: T1, human SIRPβ1 isoform 1 on cells (human, UniProt O00241 30-398); test: cell binding titration; target not given
T1 construct: On CHO cells (low level), on BWZ/BW5147.G.1.4 cells (reporter cells co-express human DAP12) or on primary human myeloid cells; also called huSIRPβ1; BWZ-huSIRPβ1

[2] = molecular target: T1, human SIRPβ1 isoform 1 on cells; test: flow cytometry titration, BWZ-huSIRPβ1 cells
Method: (§1) In these experiments, two antibodies previously described were used as positive controls: antibody 18D5 (an anti-SIRPβ antibody that cross-reacts with SIRPα and SIRPβ) and antibody KWAR23 (an anti-SIRPβ antibody that cross-reacts with SIRPα, SIRPβ, and SIRPγ). These antibodies were recombinantly produced on a human IgG4 backbone. […] Serial dilutions of each of the anti-SIRPβ1 monoclonal antibodies and control antibodies were added to 10⁵ cells and allowed to achieve binding equilibrium at 4° C. After addition of fluorescently-labeled secondary antibody and brief washing steps, MFI values as a function of titrated antibody concentration were recorded via FACS analysis.
In Table 14 below, EC50 values assign relative affinity by adding increasing concentrations of antibody variants to cells overexpressing SIRPβ 1. Receptor bound antibodies were detected by staining cells with anti-human IgG PE secondary antibody (Southern Biotech). Curves were fit using nonlinear regression analysis with Graphpad Prism 6 software.

[3] = molecular target: T2, human SIRPα on cells (human, UniProt P78324 31-504); test: flow cytometry on BWZ cells overexpressing human SIRPα, fluorescent secondary antibody, MFI
T2 construct: Whole entry
Method: (§2) To determine antigen specificity of anti-SIRPβ1 antibodies of the present disclosure, cell-based affinity measurements were performed to ascertain the apparent affinities of affinity-matured anti-SIRPβ 1 antibodies to cell surface-expressed antigen. BW5147.G.1.4 cells, an immortalized mouse T-cell line, were engineered to overexpress human SIRPβ1 (BWZ-huSIRPβ1) or human SIRPα (BWZ-huSIRPα). Jurkat cells, an immortalized human T cell line, endogenously express SIRPγ.
as §1
(§3) Receptor bound antibodies were detected by staining cells with anti-human IgG PE secondary antibody (Southern Biotech). Curves were fit using nonlinear regression analysis with Graphpad Prism 6 software.

[4] = molecular target: T3, human SIRPα domain 1 (D1) Fc fusion (human, UniProt P78324 32-149); test: Octet, IgG avid
T3 construct: also called human SIRPα D1-Fc; Human SIRPα Fc; not shown: C-terminal human IgG1 Fc

[5] = molecular target: T4, SIRPγ on Jurkat cells (human, UniProt Q9P1W8 29-387); test: flow cytometry on Jurkat cells (endogenous SIRPγ), fold over isotype (MFI)
T4 construct: whole, on cells
T4 sequence (Q9P1W8 29-387): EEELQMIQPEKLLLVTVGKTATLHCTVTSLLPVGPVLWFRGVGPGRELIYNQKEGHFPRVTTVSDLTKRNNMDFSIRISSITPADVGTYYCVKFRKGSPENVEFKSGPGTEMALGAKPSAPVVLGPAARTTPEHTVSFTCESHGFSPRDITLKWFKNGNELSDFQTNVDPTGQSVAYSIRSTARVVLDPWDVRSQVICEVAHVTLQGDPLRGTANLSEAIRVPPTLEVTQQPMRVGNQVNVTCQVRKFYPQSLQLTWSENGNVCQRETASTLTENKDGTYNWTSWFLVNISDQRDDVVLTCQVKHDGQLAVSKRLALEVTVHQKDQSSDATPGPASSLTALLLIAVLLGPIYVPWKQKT
Method: as §2, §1, §3

[6] = molecular target: T5, mouse SIRPβ1 on CHO cells (mouse); test: flow cytometry;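 as to FOB: antibody binding to cells detected with a PE-labelled secondary antibody, given as mean fluorescence intensity relative to background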
T5 construct: Whole entry
T5 chain: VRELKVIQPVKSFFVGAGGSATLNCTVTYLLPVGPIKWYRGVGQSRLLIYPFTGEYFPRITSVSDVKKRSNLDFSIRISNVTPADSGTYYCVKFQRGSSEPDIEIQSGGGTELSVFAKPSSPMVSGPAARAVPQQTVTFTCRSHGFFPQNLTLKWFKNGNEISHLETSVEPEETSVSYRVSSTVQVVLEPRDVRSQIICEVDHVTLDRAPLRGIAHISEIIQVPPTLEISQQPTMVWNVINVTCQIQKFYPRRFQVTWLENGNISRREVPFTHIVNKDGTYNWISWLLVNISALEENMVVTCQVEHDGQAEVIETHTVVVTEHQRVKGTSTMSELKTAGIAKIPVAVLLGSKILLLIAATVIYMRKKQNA

[7] = molecular target: T2, human SIRPα on cells; test: flow cytometry;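 as to FOB: antibody binding to cells detected with a PE-labelled secondary antibody, given as mean fluorescence intensity relative to background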
[8] = molecular target: T1, human SIRPβ1 isoform 1 on cells; test: flow cytometry;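 also: antibody binding to cells detected with a PE-labelled secondary antibody, given as mean fluorescence intensity relative to background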
[9] = molecular target: T5, mouse SIRPβ1 on CHO cells; test: flow cytometry;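 as to FOB: antibody binding to cells detected with a PE-labelled secondary antibody, given as mean fluorescence intensity relative to background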
[10] = molecular target: T6, human SIRPβ1-Fc isoform 3 (Q5TFQ8) (human, UniProt Q5TFQ8 30-371, limits assumed); test: ELISA on plate-coated huSirpB-Fc (Q5TFQ8.1), anti-human kappa-HRP, A450
T6 construct: Whole entry named; made in HEK293 cells; also called human SIRPβ1 isoform 3
T6 sequence (Q5TFQ8 30-371 limits assumed, one chain of several): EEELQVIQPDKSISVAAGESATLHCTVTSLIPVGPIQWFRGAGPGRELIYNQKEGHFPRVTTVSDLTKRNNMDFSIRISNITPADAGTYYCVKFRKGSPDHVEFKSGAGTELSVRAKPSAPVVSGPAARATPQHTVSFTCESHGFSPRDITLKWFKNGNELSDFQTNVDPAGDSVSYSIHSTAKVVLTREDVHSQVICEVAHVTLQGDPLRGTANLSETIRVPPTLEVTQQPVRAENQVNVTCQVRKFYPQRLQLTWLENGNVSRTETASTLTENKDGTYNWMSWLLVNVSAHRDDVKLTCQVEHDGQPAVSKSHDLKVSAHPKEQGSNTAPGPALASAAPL
Method: To ascertain if the selected anti-SIRPβ1 antibodies cross-reacted with other isoforms of human SIRPβ1 or with cynomolgus SIRPβ1, recombinant antigens based on human SIRPβ1 isoform 3 sequence and cynomolgus SIRPβ1 isoform 1 sequence were produced by transient transfection in HEK293 cells. Purified, Fc-tagged recombinant proteins were adsorbed onto 96-well plates at 1 μg/mL overnight at 4° C. Plates were subsequently washed with PBS+0.05% Tween-20 and blocked with 1% BSA+PBS for 2 hours at room temperature. Antibodies diluted in blocking buffer at 1 μg/mL were added to wells, serially diluted, and allowed to bind antigen overnight at 4° C. The following day, the primary antibodies were removed and anti-human kappa light chain antibody conjugated to horseradish peroxidase diluted 1:10,000 in blocking buffer were added to wells and incubated for 1 hour at room temperature. Plates were washed with PBS+0.05% Tween-20 and 100 μL of TMB substrate solution was added to wells to generate a colorimetric signal proportional to amount of anti-SIRPβ1 antibody bound to antigen. Once the reaction reached an appropriate color intensity, 100 μL of Stop solution was added to quench the enzyme.
(§4) Eight anti-SIRPβ1 antibodies (four parental antibodies and four corresponding affinity matured antibodies) were selected for analysis.

[11] = molecular target: T7, Soluble, human SIRPβ1-Fc isoform 1 (O00241) (human, UniProt O00241 30-371, limits assumed); test: ELISA, antigen coated
T7 construct: Whole entry named; also called human SIRPβ1 isoform 1
T7 sequence (O00241 30-371 limits assumed, one chain of several): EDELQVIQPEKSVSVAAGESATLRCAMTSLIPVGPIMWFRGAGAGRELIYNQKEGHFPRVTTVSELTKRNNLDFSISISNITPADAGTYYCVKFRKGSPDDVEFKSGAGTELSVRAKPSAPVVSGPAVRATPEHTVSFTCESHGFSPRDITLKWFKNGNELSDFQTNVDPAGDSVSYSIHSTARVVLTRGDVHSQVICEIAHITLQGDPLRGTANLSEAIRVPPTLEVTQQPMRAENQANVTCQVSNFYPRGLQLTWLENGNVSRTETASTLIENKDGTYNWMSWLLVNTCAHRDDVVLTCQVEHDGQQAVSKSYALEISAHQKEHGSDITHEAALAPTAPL
From the text: Recombinant antigen based on the sequence of SIRPβ1 isoform 1 was used for selecting anti-SIRPβ1 antibodies from yeast library pools. To ascertain if the selected anti-SIRPβ1 antibodies cross-reacted with other isoforms of human SIRPβ1 or with cynomolgus SIRPβ1, recombinant antigens based on human SIRPβ1 isoform 3 sequence and cynomolgus SIRPβ1 isoform 1 sequence were produced by transient transfection in HEK293 cells. Purified, Fc-tagged recombinant proteins were adsorbed onto 96-well plates at 1 μg/mL overnight at 4° C. Plates were subsequently washed with PBS+0.05% Tween-20 and blocked with 1% BSA+PBS for 2 hours at room temperature. Antibodies diluted in blocking buffer at 1 μg/mL were added to wells, serially diluted, and allowed to bind antigen overnight at 4° C. The following day, the primary antibodies were removed and anti-human kappa light chain antibody conjugated to horseradish peroxidase diluted 1:10,000 in blocking buffer were added to wells and incubated for 1 hour at room temperature. Plates were washed with PBS+0.05% Tween-20 and 100 μL of TMB substrate solution was added to wells to generate a colorimetric signal proportional to amount of anti-SIRPβ1 antibody bound to antigen. Once the reaction reached an appropriate color intensity, 100 μL of Stop solution was added to quench the enzyme.
as §4

[12] = molecular target: T2, human SIRPα on cells; test: flow cytometry; remark: listed apart in the source

T1 sequence (O00241 30-398): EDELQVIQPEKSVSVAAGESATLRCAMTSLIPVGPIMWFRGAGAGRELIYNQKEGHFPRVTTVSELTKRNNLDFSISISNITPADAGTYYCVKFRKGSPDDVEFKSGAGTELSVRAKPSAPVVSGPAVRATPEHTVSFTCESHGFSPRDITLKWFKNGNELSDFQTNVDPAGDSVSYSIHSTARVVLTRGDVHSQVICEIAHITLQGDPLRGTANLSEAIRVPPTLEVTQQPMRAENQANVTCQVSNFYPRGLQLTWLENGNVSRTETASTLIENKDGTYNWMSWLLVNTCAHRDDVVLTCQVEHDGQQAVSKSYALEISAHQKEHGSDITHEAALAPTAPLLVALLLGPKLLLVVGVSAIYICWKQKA

B1: SB-40-20 (antibody, V domains shown)
VH: QVQLVQSGAEVKKPGASVKVSCKASGYTFTSFYISWVRQAPGQGLEWMGIINPSSGHTNYAQKLQGRVTMTTDTSTSTAYMELSSLRSEDTAVYYCARDTGEYSYSPHGMDVWGQGTTVTVSS
VL: EIVLTQSPATLSLSPGERATLSCRASQSVSSYLAWYQQKPGQAPRLLIYDSSNRATGIPARFSGSGSGTDFTLTISSLEPEDFAVYYCQQRDEHPPWTFGGGTKVEIK
notes: IgG
With B1 the EC50 [1] was 405 pM, the EC50 [2] was 8700 pM and the binding result [3] was “no binding (tested: Log nM about 0.8 (about 7 nM))”. For the same binder, the binding result [4] was “no binding (tested: 100 nM)”, the binding result [5] was “no binding (tested: Log nM about 1.8 (about 60 nM))” and the FOB [6] was 2 fold over background. The FOB [7] was 1 fold over background, the FOB [8] was 3 fold over background and the binding result [9] was “no binding (tested: 1 ug/ml)”.

B2: SB-1-3 (antibody, V domains shown)
VH: EVQLVESGGGLVKPGGSLRLSCAASGFTFSAYGMNWVRQAPGKGLEWVSAITSSGRSTYYADSVKGRFTISRDNSKNTLYLQMNSLRAEDTAVYYCAKDFTEVVGWLGMDVWGQGTTVTVSS
VL: EIVMTQSPGTLSLSPGERATLSCRASQSVSSSYLAWYQQKPGQAPRLLIYGASSRATGIPDRFSGSGSGTDFTLTISRLEPEDFAVYYCQLLGSSPRTFGGGTKVEIK
notes: IgG
For B2, the EC50 [1] was 62 pM, the EC50 [2] was 28.4 pM and the binding result [3] was “no binding (tested: Log nM about 0.8 (about 7 nM))”. The binding result [4] was “no binding (tested: 100 nM)”, the binding result [5] was “no binding (tested: Log nM about 1.8 (about 60 nM))” and the FOB [6] was 2 fold over background. The FOB [7] was 0 fold over background, the FOB [8] was 4 fold over background and the binding result [9] was “no binding (tested: 1 ug/ml)”.

B3: SB-2-7 (antibody, V domains shown)
VH: EVQLLESGGGLVQPGGSLRLSCAASGFTFARYGMHWVRQAPGKGLEWVSAISGLAGPTYADSVKGRFTISRDNSKNTLYLQMNSLRAEDTAVYYCARDQTAAAAIWGMDVWGQGTTVTVSS
VL: B2 VL with I2V, M4L, L91Q, L92S, G93S, S95H, R97F
notes: IgG
B3 was tested, and the EC50 [1] was 132 pM, the binding result [10] was “no binding (tested: 1 ug/mL)” and the EC50 [11] was 29 pM. The binding result [4] was “no binding (tested: 100 nM)”, the FOB [6] was 1 fold over background and the FOB [7] was 1 fold over background. For the same binder, the FOB [8] was 5 fold over background, the binding result [9] was “no binding (tested: 1 ug/ml)” and the binding result [12] was “no binding (tested: 1 ug/ml)”.

B4: SB-8-15 (antibody, V domains shown)
VH: QVQLQESGPGLVKPSETLSLTCAVSGYSISAHYYWGWIRQPPGKGLEWIGSIYQSGHTYYNPSLKSRVTISVDTSKNQFSLKLSSVTAADTAVYYCARGGAMTPAGMDVWGQGTTVTVSS
VL: B2 VL with S54N, L91Q, L92V, G93Y, R97Y
notes: IgG
For B4, the EC50 [1] was 737 pM, the EC50 [2] was 596 pM and the binding result [3] was “no binding (tested: Log nM about 0.8 (about 7 nM))”. The binding result [4] was “no binding (tested: 100 nM)”, the binding result [5] was “no binding (tested: Log nM about 1.8 (about 60 nM))” and the FOB [6] was 1 fold over background. The FOB [7] was 1 fold over background, the FOB [8] was 7 fold over background and the binding result [9] was “no binding (tested: 1 ug/ml)”.

B5: 18D5 (antibody, V domains shown)
VH: QVQLQQPGAELVRPGSSVKLSCKASGYTFTSYWVHWVKQRPIQGLEWIGNIDPSDSDTHYNQKFKDKASLTVDKSSSTAYMQLSSLTFEDSAVYYCVRGGTGTMAWFAYWGQGTLVTVSA
VL: DVVMTQTPLSLPVSLGDQASISCRSSQSLVHSYGNTYLYWYLQKPGQSPKLLIYRVSNRFSGVPDRFSGSGSGTDFTLKISRVEAEDLGVYFCFQGTHVPYTFGSGTKLEIK
For B5, the EC50 [2] was 477 pM and the “EC50 (read off the curve)” value [3] was roughly 200 pM.
